Data from publication doi:10.1101/738179, “Rad51 Interaction Analysis Reveals a Functional Interplay Among Recombination Auxiliary Factors” (bioRxiv, 2019).

B1: Swi5-Sfr1 (wild type, full-length Sfr1) (complex, S. pombe)
chain 1: MEKSQLESRVHLLEQQKEQLESSLQDALAKLKNRDAKQTVQKHIDLLHTYNEIRDIALGMIGKVAEHEKCTSVELFDRFGVNGSE
chain 2: MSQTINSELNENATSQCKEDLKVSLSESDLRDSQGQLGIENPPKCNNSGNHSDNLGFIEQSETVHPENEKALTPDLRDTKIHTSLPITTPFSKKRAREAKNILLKPFKSPLRQTASPQVADTNLKPSLAVTNLNSDETNTSSEPVTSPLRTTPNSIKRQKRLFKSPISNCLNPKSDPEITQLLSRRLKLEKEVRNLQEQLITAETARKVEAKNEDKDLQTLIQKWKNAAQQAAEVLFKPMAERIRLAGGVTQSFRIEEGENKGQIQEVRTEFTMSMFLNQFGVPVHLMSFDEENGDWKS
B2: Rad51 (natural protein, S. pombe, UniProt P36601 1-365, looked up)
chain: MADTEVEMQVSAADTNNNENGQAQSNYEYDVNVQDEEDEAAAGPMPLQMLEGNGITASDIKKIHEAGYYTVESIAYTPKRQLLLIKGISEAKADKLLGEASKLVPMGFTTATEYHIRRSELITITTGSKQLDTLLQGGVETGSITELFGEFRTGKSQICHTLAVTCQLPIDMGGGEGKCLYIDTEGTFRPVRLLAVADRYGLNGEEVLDNVAYARAYNADHQLELLQQAANMMSESRFSLLVVDSCTALYRTDFSGRGELSARQMHLARFMRTLQRLADEFGIAVVITNQVVAQVDGISFNPDPKKPIGGNILAHSSTTRLSLRKGRGEQRICKIYDSPCLPESEAIFAINSDGVGDPKEIIAPV
notes: Rad51, RecA-family recombinase of S. pombe; Covalently attached to Affi-gel 15 in the pull-down; Multimer in solution by SEC; also called Affi-Rad51

Key:
Rad51 = target: B2; assay: cell-based or functional assay
[1] = target: B1; assay: pull-down; Rad51 covalently attached to Affi-gel 15 (2 µg protein/µL gel); Swi5-Sfr1 variant in Affi-gel buffer (25 mM HEPES-KOH pH 7.5, 150 mM NaCl, 3.5 mM MgCl2, 0.5 mM DTT, 0.05 µg/µL BSA, 10% glycerol, 0.05% igepal CA-630); 30 °C 30 min; Sfr1 detected by immunoblot; Affi-BSA as control; details: both partners purified

Row | Binder | Rad51-dependent ATP turnover, fold increase at a Swi5-Sfr1:Rad51 ratio of 1:20 (0.25 µM Swi5-Sfr1, 5 µM Rad51) (Rad51) | binding result [1]
1 | B1 | 1.85 fold | –
2 | B2 | – | binds
